Experiment [1] addresses T1, Guanine Nucleotide-Binding Protein Beta 5 (GBB5), mouse, endogenous (Mus musculus, UniProt P62881, strain).
T1 construct: also called mouse GBB5; source: endogenous, mouse retinal homogenate
Kind of experiment: far-Western, overlay or dot blot; western blot: retinal lysates resolved by SDS-PAGE, on PVDF; probed with 1 μg/mL scFv in PBS for 2 h; anti-Flag-HRP M2, ECL. The following applies: one partner purified. In general terms: In western blotting, separated proteins are transferred to a membrane and probed.

The target of experiment [2] is T2, Guanine Nucleotide-Binding Protein Beta 5 (GBB5), chicken, endogenous (Gallus gallus, UniProt A0A8V0ZF95).
T2 construct: expected size 38.8 kDa printed; also called chicken homolog; source: endogenous, chicken retina or whole eye homogenate
The description is as above. Particulars: one partner purified.

The target of experiment [3] is T3, Guanine Nucleotide-Binding Protein Beta 5 (GBB5), rabbit, endogenous (Oryctolagus cuniculus, UniProt Q6PNB6).
T3 construct: expected size 38.7 kDa printed; also called rabbit GBB5; source: endogenous, rabbit retinal homogenate
The description is as above. Particulars: one partner purified.

The target in experiment [4] is T4, GBB5 peptide (Guanine Nucleotide-Binding Protein Beta 5) (Oryctolagus cuniculus peptide, synthetic, SMILES …).
T4 construct: four amino acid linker, printed in words: Glycine-Serine-Glycine-Serine; also called wild-type peptide; Ctrl; source: synthetic peptide
T4 chain: Biotin-GSGSKLHDVELHQVAERV-NH2
Kind of experiment: photonic crystal biosensor (SRU Biosystems BIND); biotinylated peptide, 50 ng/well, on streptavidin-coated 96-well biosensor plate, blocked with 5% BSA; scFv in decreasing concentration in 7 wells in elution buffer; overnight end-point change in peak wavelength; dose response curve, EC50 used to estimate Kd. Particulars: both partners purified.

Experiment [5] has as its target T4, GBB5 peptide (Guanine …). Put plainly: ELISA; peptides at 25 nM on NeutrAvidin-coated plate; scFv at 30 nM, scFv-Fc at 10 nM in PBST; anti-FLAG-HRP, ABTS, 405 nm. Particulars: both partners purified.

Data on two molecules can be found in article PMC4406585, “Generating Recombinant Antibodies against Putative Biomarkers of Retinal Injury” (PLoS ONE, 2015).

*: point of attachment. Biotin = O=C1N[C@H]2[C@H](CS[C@H]2CCCCC(=O)*)N1

T1 sequence (P62881 whole entry, looked up, change not shown): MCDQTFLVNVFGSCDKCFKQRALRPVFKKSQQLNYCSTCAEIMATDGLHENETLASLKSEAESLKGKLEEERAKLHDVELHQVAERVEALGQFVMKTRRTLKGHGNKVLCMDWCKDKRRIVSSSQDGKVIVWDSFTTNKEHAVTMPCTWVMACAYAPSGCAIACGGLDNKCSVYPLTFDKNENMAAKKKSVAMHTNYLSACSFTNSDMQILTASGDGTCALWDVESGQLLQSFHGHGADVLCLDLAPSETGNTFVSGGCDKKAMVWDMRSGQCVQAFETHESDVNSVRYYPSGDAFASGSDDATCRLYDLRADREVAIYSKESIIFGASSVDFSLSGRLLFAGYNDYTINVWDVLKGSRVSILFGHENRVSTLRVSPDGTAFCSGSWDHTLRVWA
T3 sequence (Q6PNB6 whole entry): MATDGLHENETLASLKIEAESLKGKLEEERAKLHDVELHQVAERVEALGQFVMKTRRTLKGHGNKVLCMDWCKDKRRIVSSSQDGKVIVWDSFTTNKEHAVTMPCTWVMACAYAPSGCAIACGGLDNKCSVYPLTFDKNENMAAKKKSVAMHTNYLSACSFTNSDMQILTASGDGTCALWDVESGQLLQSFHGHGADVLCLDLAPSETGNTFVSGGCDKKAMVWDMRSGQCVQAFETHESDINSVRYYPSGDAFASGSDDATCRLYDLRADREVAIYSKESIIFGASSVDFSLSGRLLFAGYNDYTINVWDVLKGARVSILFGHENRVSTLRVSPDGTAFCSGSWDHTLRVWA

B1: anti-GBB5-H9 scFv (scFv, V domains shown)
VH: EVQLVQSGGGLVQPGGSLRLSCAASGFTVSSNYMSWVRQAPGKGLEWVSSISSSSSYIYYADSVKGRFTISRDNAKNSLYLQMNSLRAEDTAVYYCARSYPFDYWGQGTLVTVSS
VL: NFMLTQPHSVSESPGKAVTISCTGSSGDVARNYVQWYQQRPGSAPIIVIYEDTQRPSGVPDRFSGSIDSSSNSASLTISGLTTEDEADYYCQSYDGHNVIFGGGTKLTVL
notes: VL of clone H9, from a phage library of human B-cell cDNA; 14 amino acid linker of the library vector between VL and VH; VH of clone H9, from a phage library of human B-cell cDNA; Order VL-linker-VH; also called anti-GBB5-scFv H9; source: E. coli TG-1 (pKP300ΔIIIΔAP, OmpA signal to the periplasm, low phosphate media), purified (IMAC); not shown: FLAG, N-terminal, kept
Usually EC50 stands for the concentration that produces a half-maximal response. Regarding B1, the binding result in experiment [1], in experiment [2] and in experiment [3] was “binds” in each case. Also, the EC50 in the experiment with GBB5 peptide (Guanine …) [4] was around 300 nM.

B2: anti-GBB5-H9 scFv-Fc (Fc fusion, human)
VH: EVQLVQSGGGLVQPGGSLRLSCAASGFTVSSNYMSWVRQAPGKGLEWVSSISSSSSYIYYADSVKGRFTISRDNAKNSLYLQMNSLRAEDTAVYYCARSYPFDYWGQGTLVTVSS
VL: NFMLTQPHSVSESPGKAVTISCTGSSGDVARNYVQWYQQRPGSAPIIVIYEDTQRPSGVPDRFSGSIDSSSNSASLTISGLTTEDEADYYCQSYDGHNVIFGGGTKLTVL
notes: VL as in m1 (clone H9); 14 amino acid linker of the library vector between VL and VH; VH as in m1 (clone H9); H9 scFv coding region subcloned upstream of the Fc through NcoI and NotI; order after the scFv: Fc, (His)6, tri-FLAG; Homodimer through disulfide bonds of the Fc; also called Fc format of the H9 clone; bivalent Fc format; source: HEK-293 Freestyle cells, transiently transfected …
Regarding B2, the “fold ELISA signal against the soluble scFv” value with GBB5 peptide (Guanine …) [5] was around 4.5 fold.
